Laboratory results from paper doi:10.64898/2025.12.16.694598.

What was measured:
Assay in all cases: BLI
[1] = target: Recombinant histidine-tagged Ewing Sarcoma Breakpoint Region 1 (EWSR1) protein (UniProt Q01844)
[2] = target: CHIKV nsP2 (Chikungunya virus; strain of the nsP2 …, UniProt Q8JUX6 536-1333)
[3] = target: EWSR1 (UniProt Q01844 1-656)
EWSR1, sequence (Q01844 whole entry): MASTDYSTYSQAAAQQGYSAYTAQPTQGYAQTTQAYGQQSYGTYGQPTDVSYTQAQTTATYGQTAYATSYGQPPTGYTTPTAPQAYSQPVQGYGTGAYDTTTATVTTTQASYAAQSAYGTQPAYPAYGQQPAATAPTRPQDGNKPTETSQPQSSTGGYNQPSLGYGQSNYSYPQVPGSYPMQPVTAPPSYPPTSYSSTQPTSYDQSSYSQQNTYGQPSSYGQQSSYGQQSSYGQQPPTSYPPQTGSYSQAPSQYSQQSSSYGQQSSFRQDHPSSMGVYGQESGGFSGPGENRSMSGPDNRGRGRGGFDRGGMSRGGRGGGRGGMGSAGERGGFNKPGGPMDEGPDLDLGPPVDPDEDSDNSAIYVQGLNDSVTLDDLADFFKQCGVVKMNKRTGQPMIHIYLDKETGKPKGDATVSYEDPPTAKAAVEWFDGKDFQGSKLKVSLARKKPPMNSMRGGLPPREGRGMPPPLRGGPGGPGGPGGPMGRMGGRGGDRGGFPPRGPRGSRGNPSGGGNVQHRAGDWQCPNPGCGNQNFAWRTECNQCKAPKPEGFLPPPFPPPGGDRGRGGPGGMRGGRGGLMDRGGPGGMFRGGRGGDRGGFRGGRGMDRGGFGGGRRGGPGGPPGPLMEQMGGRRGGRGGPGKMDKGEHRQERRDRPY

Recombinant histidine-tagged Ewing Sarcoma Breakpoint Region 1 (EWSR1) protein, sequence (Q01844 whole entry): as above
CHIKV nsP2, sequence (Q8JUX6 536-1333): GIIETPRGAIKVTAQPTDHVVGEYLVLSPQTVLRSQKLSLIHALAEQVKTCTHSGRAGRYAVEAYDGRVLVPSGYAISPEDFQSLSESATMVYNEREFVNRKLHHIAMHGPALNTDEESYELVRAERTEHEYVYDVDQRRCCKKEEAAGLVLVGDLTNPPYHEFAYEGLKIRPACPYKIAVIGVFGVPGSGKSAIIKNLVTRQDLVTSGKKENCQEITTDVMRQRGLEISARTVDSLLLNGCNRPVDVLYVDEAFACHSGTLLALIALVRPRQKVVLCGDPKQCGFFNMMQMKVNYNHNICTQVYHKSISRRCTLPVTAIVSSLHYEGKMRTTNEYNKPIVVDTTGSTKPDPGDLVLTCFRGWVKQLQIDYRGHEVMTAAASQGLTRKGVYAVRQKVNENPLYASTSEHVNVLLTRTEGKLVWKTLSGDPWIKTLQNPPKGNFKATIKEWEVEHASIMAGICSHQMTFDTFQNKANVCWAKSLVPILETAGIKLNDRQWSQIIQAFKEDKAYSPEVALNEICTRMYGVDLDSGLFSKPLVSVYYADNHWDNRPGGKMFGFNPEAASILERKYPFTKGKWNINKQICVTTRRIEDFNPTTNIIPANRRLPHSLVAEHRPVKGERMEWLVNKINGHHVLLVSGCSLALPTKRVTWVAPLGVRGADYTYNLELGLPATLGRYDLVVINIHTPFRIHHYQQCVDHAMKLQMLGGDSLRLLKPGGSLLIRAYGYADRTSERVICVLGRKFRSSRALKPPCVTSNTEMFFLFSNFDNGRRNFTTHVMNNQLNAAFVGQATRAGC
Chikungunya virus non-structural protein 2 (CHIKV nsP2), full-length recombinant, sequence (Q8JUX6 536-1333): as above

| Molecule | Kd [1] | Kd [2] | Kd [3] |
| --- | --- | --- | --- |
| Chikungunya virus non-structural protein 2 (CHIKV nsP2), full-length recombinant (from UniProt Q8JUX6) (enzyme) | 716 nM |  |  |
| CCGAACCCACAGGGACGUAGGAGAUGUUAUUUUGUUUUUAAUAUUUC (ssRNA) [3NCR48] |  | 92.9 ± 1.6 nM | 91.4 ± 0.37 nM |
